From patent EP4703384A1 (Chia Tai Tianqing Pharmaceutical Group Co., Ltd., dated 2026) come the findings set out here.

One assay has as its target T1, GPRC5C (human, UniProt Q9NQ84 24-441).
T1 construct: Full length on CHO-K1 cells; also called RAIG3; Human GPRC5C
Kind of assay: FACS on CHO-K1-GPRC5C cells.

The target of another assay is T2, mouse GPRC5D (mouse, UniProt Q9JIL6 1-344).
T2 construct: Full length, on stably transfected CHO-K1 cells; also called murineGPRC5D; CHO-K1-murineGPRC5D
T2 sequence: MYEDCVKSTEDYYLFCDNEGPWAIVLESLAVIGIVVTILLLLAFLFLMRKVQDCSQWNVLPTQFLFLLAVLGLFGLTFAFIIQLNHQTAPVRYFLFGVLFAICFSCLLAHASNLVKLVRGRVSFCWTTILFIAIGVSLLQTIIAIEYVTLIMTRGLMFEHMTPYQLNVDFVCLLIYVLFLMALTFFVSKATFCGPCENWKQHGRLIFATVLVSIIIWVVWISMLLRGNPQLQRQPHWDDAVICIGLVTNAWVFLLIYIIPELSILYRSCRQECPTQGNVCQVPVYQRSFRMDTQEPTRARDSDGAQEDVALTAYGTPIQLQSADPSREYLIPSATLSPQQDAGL
The assay is described as follows: FACS on CHO-K1-murineGPRC5D cells.

The target of the next assay is T3, GPRC5A (human, UniProt Q8NFJ5 1-357).
T3 construct: Full length on CHO-K1 cells; also called RAIG1; Human GPRC5A
The assay is described as follows: FACS on CHO-K1-GPRC5A cells.

The target of a further assay is T4, GPRC5B (human, UniProt Q9NZH0 29-403).
T4 construct: Full length on CHO-K1 cells; also called RAIG2; Human GPRC5B
The assay is described as follows: FACS on CHO-K1-GPRC5B cells.

The target in another assay is T5, monkey GPRC5D (monkey, UniProt Q9NZD1 1-343 (human entry)).
T5 construct: Full length, on stably transfected CHO-K1 cells; also called cynoGPRC5D; CHO-K1-cynoGPRC5D
T5 chain: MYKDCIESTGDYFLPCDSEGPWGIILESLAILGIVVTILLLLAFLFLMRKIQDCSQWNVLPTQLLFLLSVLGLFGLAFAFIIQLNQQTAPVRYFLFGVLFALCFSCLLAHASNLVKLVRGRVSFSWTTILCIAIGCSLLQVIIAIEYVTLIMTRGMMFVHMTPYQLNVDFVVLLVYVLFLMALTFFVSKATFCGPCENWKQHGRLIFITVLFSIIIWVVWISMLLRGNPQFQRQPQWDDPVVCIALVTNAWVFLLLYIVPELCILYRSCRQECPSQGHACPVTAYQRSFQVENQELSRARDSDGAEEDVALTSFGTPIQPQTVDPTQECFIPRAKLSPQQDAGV
Kind of assay: FACS on CHO-K1-cynoGPRC5D cells.

For assay [1], the target named is T6, human GPRC5D protein (human, UniProt Q9NZD1 1-345).
T6 construct: also called hGPRC5D; CHO-K1-hGPRC5D^hi
The assay is described as follows: FACS on CHO-K1-hGPRC5D^hi cells.

In assay [2] the target is T6, human GPRC5D protein. The assay is described as follows: FACS on NCI-H929 cells.
The target in assay [3] is T7, T cell surface CD3 (human, UniProt P07766 23-207; P04234 22-171; P09693 23-182).
T7 construct: CD3 is a complex of several chains; also called CD3^+ T cells
The assay is described as follows: FACS on human CD3+ T cells.

Assay [4] deals with T7, T cell surface CD3. Kind of assay: cell-based or functional assay.

Substitutions are numbered along the chain they refer to.

Broadly, the EC50 is the concentration giving half of the maximal effect.

T7 sequence (P07766 23-207 limits assumed, chain 1 of 3): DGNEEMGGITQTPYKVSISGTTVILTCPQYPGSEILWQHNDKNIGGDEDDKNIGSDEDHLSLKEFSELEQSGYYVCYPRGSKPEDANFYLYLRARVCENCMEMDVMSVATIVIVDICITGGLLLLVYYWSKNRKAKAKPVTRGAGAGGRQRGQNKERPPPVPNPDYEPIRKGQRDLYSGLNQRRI
T7 sequence (P04234 22-171 limits assumed, chain 2 of 3): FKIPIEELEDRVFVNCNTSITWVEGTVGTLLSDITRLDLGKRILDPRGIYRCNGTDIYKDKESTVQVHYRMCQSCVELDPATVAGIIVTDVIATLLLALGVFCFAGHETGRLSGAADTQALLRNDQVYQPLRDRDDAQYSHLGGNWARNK
T7 sequence (P09693 23-182 limits assumed, chain 3 of 3): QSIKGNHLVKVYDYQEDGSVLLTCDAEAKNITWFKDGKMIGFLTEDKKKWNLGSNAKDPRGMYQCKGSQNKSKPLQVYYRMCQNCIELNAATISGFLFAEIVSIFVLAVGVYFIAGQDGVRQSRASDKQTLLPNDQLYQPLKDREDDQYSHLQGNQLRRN
T1 sequence (Q9NQ84 24-441 limits assumed): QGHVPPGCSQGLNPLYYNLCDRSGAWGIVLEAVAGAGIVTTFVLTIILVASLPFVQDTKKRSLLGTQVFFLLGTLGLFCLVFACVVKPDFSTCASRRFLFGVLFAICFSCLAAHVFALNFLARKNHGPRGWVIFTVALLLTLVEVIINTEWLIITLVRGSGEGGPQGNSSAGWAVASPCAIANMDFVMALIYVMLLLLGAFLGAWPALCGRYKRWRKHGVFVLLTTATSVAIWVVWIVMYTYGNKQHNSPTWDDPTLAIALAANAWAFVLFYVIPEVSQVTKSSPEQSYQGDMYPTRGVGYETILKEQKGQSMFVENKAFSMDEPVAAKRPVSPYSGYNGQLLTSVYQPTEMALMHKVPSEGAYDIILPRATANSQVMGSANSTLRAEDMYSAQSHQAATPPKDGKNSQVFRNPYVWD
T4 sequence (Q9NZH0 29-403 limits assumed): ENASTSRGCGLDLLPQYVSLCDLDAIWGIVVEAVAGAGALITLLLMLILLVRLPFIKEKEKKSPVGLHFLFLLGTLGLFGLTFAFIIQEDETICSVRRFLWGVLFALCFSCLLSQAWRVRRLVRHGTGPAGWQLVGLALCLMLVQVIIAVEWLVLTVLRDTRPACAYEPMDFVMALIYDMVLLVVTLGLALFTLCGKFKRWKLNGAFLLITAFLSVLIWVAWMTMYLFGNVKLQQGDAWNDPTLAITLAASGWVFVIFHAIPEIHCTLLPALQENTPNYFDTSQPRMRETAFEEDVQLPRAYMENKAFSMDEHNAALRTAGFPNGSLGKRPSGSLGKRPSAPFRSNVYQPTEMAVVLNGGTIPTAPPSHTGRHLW
T3 sequence (Q8NFJ5 whole entry): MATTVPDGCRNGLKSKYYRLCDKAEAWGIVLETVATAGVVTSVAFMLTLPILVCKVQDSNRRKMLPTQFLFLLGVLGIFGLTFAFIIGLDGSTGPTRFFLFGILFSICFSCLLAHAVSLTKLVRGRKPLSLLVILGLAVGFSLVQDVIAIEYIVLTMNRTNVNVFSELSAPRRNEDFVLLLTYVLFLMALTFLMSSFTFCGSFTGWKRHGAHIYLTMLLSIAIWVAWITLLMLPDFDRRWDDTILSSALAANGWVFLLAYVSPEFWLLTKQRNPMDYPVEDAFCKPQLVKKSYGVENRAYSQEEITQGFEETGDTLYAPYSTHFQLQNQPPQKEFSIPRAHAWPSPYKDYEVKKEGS
T6 sequence (Q9NZD1 whole entry): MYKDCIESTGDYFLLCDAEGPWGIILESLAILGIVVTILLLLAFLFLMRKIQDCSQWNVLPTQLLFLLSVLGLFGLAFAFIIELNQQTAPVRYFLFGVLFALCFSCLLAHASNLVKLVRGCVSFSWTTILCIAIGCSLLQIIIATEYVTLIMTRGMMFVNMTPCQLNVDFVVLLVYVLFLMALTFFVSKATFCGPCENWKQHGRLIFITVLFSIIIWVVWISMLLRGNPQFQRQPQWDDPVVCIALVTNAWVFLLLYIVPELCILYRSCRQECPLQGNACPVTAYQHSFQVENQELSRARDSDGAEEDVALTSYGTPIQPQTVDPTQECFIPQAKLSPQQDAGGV

B1: Chi-128 (antibody, human IgG1, kappa, V domains shown)
VH: DVQLVESGGGLVQPGGSRKVSCAASGFTFSSFGMHWVRQAPEKGLEWVAYISRGSSTIYYADTVKGRFTISRDNPKNTLFLQMTSLRSEDTAMYYCARSGYGSSSYYFDYWGQGTTLTVSS
VL: ENVLTQSPAIMSASPREKVTMTCRASSSIRSSYLHWYQQKSGASPKLWIYSTSNLASGVPARFSGSGSGTSYSLTISSVEAEDAATYYCQQFSGYPLTFGGGTKLEIKR
notes: Human-mouse chimeric antibody, human IgG1 heavy chain constant region and Kappa light chain constant region
Take B1: the binding result is listed as “no binding (tested: 4.1-3000 ng/mL)” with GPRC5C; “binds” with mouse GPRC5D; “no binding (tested: 4.1-3000 ng/mL)” with GPRC5A; “no binding (tested: 4.1-3000 ng/mL)” with GPRC5B; “binds” with monkey GPRC5D; “binds” in the assay with human GPRC5D protein [1].

B2: hu128-v1 (antibody, human IgG1, kappa, V domains shown)
VH: B1 VH with D1E, K19R, E42G, P75A, T78S, F80Y, T84N, S88A, M93V, L117V
VL: EIVLTQSPATLSASPGERATMSCRASSSIRSSYLHWYQQKPGQSPRLWIYSTSNLASGVPARFSGSGSGTDYTLTISSLEPEDAAVYYCQQFSGYPLTFGGGTKVEIKR
Regarding B2, the binding result in the assay with human GPRC5D protein [2] is recorded as “binds”.

B3: Chi-131 (antibody, human IgG1, kappa, V domains shown)
VH: EVQLQQSGPELVKPGASVKMSCKASGYTFTNYVMHWVKQKPGQGLEWIGYFNPYNDGTNYNEKFKGKATLTSDKSSNTAYMELSSLTSEDSAVYYCARGGVRRYFDVWGAGTTVTVSS
VL: DIQMTQSPSSLSASLGERVSLTCRASQDIGSNLNWLQLGPDGTIKRLIYATFSLDSGVPKRFSGSRSGSDYSLTISSLESEDFVDYYCQQYANFPPTFGGGTKLEIKR
notes: Human-mouse chimeric antibody, human IgG1 heavy chain constant region and Kappa light chain constant region; also called chimeric antibody Chi-131
On to B3, for which the binding result is “no binding (tested: 4.1-3000 ng/mL)” with GPRC5C; “binds” with mouse GPRC5D; “no binding (tested: 4.1-3000 ng/mL)” with GPRC5A; “no binding (tested: 4.1-3000 ng/mL)” with GPRC5B; “binds” with monkey GPRC5D; “binds” with human GPRC5D protein [1].

B4: hu131-v2 (antibody, human IgG1, kappa, V domains shown)
VH: B3 VH with Q5V, P9A, L11V, K40A, K67R, K74T, S76A, T87R, S91T, A110Q
VL: DIQMTQSPSSLSASVGDRVTITCRASQDIGSNLNWLQLGPGGAIKRLIYATFSLDSGVPSRFSGSRSGSDYTLTISSLQPEDFVDYYCQQYANFPPTFGGGTKVEIKR
notes: Humanized antibody of Chi-131
B4: the binding result with human GPRC5D protein [2] was “binds”.

B5: hu131-v4 (antibody, human IgG1, kappa, V domains shown)
VH: EVQLVQSGAEVVKPGASVKMSCKASGYTFTNYVMHWVKQAPGQGLEWIGYFNPYNEGTNYNEKFKGRATLTSDTSANTAYMELSSLRSEDTAVYYCARGGVRRYFDVWGQGTTVTVSS
VL: B4 VL
notes: Humanized antibody of Chi-131
In the case of B5, the binding result in the assay with human GPRC5D protein [2] is “binds”.

B6: hu131-v3 (antibody, human IgG1, kappa, V domains shown)
VH: B5 VH with E56D, G57A
VL: B4 VL
notes: Humanized antibody of Chi-131
B6: the binding result with human GPRC5D protein [2] is “binds”.

B7: hu131-v1 (antibody, human IgG1, kappa, V domains shown)
VH: B5 VH with I48M, E56D, A68V
VL: B4 VL
notes: Humanized antibody of Chi-131
For B7, in the assay with human GPRC5D protein [2], the binding result is “binds”.

B8: Talquetamab (bispecific antibody, human IgG4 S228P, kappa, lambda, F234A L235A)
heavy 1: not shown
light 1: DIQMTQSPSSLSASVGDRVTITCKASQNVATHVGWYQQKPGKAPKRLIYSASYRYSGVPSRFSGSGSGTEFTLTISNLQPEDFATYYCQQYNRYPYTFGQGTKLEIKRTVAAPSVFIFPPSDEQLKSGTASVVCLLNNFYPREAKVQWKVDNALQSGNSQESVTEQDSKDSTYSLSSTLTLSKADYEKHKVYACEVTHQGLSSPVTKSFNRGEC
heavy 2: EVQLVESGGGLVQPGGSLRLSCAASGFTFNTYAMNWVRQAPGKGLEWVARIRSKYNNYATYYAASVKGRFTISRDDSKNSLYLQMNSLKTEDTAVYYCARHGNFGNSYVSWFAYWGQGTLVTVSSASTKGPSVFPLAPCSRSTSESTAALGCLVKDYFPEPVTVSWNSGALTSGVHTFPAVLQSSGLYSLSSVVTVPSSSLGTKTYTCNVDHKPSNTKVDKRVESKYGPPCPPCPAPEAAGGPSVFLFPPKPKDTLMISRTPEVTCVVVDVSQEDPEVQFNWYVDGVEVHNAKTKPREEQFNSTYRVVSVLTVLHQDWLNGKEYKCKVSNKGLPSSIEKTISKAKGQPREPQVYTLPPSQEEMTKNQVSLTCLVKGFYPSDIAVEWESNGQPENNYKTTPPVLDSDGSFLLYSKLTVDKSRWQEGNVFSCSVMHEALHNHYTQKSLSLSLGK
light 2: QTVVTQEPSLTVSPGGTVTLTCRSSTGAVTTSNYANWVQQKPGQAPRGLIGGTNKRAPGTPARFSGSLLGGKAALTLSGVQPEDEAEYYCALWYSNLWVFGGGTKLTVLGQPKAAPSVTLFPPSSEELQANKATLVCLISDFYPGAVTVAWKADSSPVKAGVETTTPSKQSNNKYAASSYLSLTPEQWKSHRSYSCQVTHEGSTVEKTVAPTECS
notes: Four polypeptide chains; also called benchmark; BM
Regarding B8, in the assay with T cell surface CD3 [3], the EC50 came to 5.35 nM and the “Top(MFI)” value turned out to be 155000 MFI. Further, in the assay with T cell surface CD3 [4], the “CD25/CD4 EC50(nM), activation of T cells in the presence of MM.1S” value was 0.0637 nM; the “CD25/CD8 EC50(nM), activation of T cells in the presence of MM.1S” value was 0.0592 nM; the “CD69/CD4 EC50(nM), activation of T cells in the presence of MM.1S” value is 0.046 nM; the “CD69/CD8 EC50(nM), activation of T cells in the presence of MM.1S” value worked out at 0.0329 nM.

B9: Chi-89 (antibody, human IgG1, kappa, V domains shown)
VH: EVQLVESGGDLVKPGGSLKLSCAASGFTFSSYGMSWVRQTPDKRLEWVATISSGGSYTYYPDSVKGRFTFSRDNAKNTLYLQMSSLKSEDTAMYYCVRQALRYHMDSWGQGTSVTVSS
VL: DIVMTQSQKFMSTSVGDRVSVTCKASQNVGTNVAWYQQKPGQSPKALIYSASYRYSGVPDRFTGSGSGTDFTLTISNVQSEDLADFFCQQYYSYPWTFGGGTKLEIKR
notes: Human-mouse chimeric antibody, human IgG1 heavy chain constant region and Kappa light chain constant region; also called chimeric antibody Chi-89
With B9, the binding result with GPRC5C was “no binding (tested: 4.1-3000 ng/mL)”; with mouse GPRC5D, “binds”; in the assay with GPRC5A, “no binding (tested: 4.1-3000 ng/mL)”; with GPRC5B, “no binding (tested: 4.1-3000 ng/mL)”; in the assay with monkey GPRC5D, “binds”; in the assay with human GPRC5D protein [1], “binds”.

B10: Chi-105 (antibody, human IgG1, kappa, V domains shown)
VH: EVQLQQSGPELVKPGASVKMSCKASGYTFTDYYMNWVKQSHGKSLEWIGYIYPNNGGTGYNQRFKGKATLTADKSSSTAYMELRSLTSEDSAVYYCARWGGTRLGYYAMDYWGQGTSVTVSS
VL: B9 VL with A34V, A46L, S50W, Y53T, Y55H, S56T, F86Y, Y92S, S93R, W96Y
notes: as for B1
Consider B10, for which the binding result is “no binding (tested: 4.1-3000 ng/mL)” with GPRC5C; “no binding (tested: 4.1-3000 ng/mL)” with GPRC5A; “no binding (tested: 4.1-3000 ng/mL)” with GPRC5B; “binds” in the assay with monkey GPRC5D; “binds” in the assay with human GPRC5D protein [1].

B11: Chi-169 (antibody, human IgG1, kappa, V domains shown)
VH: EVKLVESGGGLVKPGASLKLSCAASGFTFSNYGMSWVRQTSDKRLEWVASISSGGGRIYYPDNVKGRFTISRENAKNTLYLQMSSLKSEDTALYYCTRHAMDNWGQGTSVIVSS
VL: QIVLTQSPAIMSASPGEKVTMTCSASSSVSNMYWYQQKSGTSPKRWIYDTSKLASGVPARFSGSGSGTSYSLTISSMEAEDASTYYCQQWSSNPLTFGAGTTLELKR
notes: Human-mouse chimeric antibody, human IgG1 heavy chain constant region and Kappa light chain constant region; also called chimeric antibody Chi-169
Consider B11, for which the binding result in the assay with GPRC5C was “no binding (tested: 4.1-3000 ng/mL)”; with mouse GPRC5D it was “binds”; with GPRC5A it was “no binding (tested: 4.1-3000 ng/mL)”; with GPRC5B it was “no binding (tested: 4.1-3000 ng/mL)”; with monkey GPRC5D it was “binds”; with human GPRC5D protein [1], “binds”.
